The values below come from article PMC4559766 (Scientific Reports, 2015).

For assay [1], the target named is T1, Human serum albumin (human, UniProt P02768 25-609). The experiment in a line: cell-based or functional assay.
Assay [2] concerns the target T2, Recombinant human TNFRI, disulfide-linked homodimer (human, UniProt P19438 30-455). The experiment in a line: ITC; VP-ITC calorimeter; peptide serially diluted and injected; KD by Microcal ORIGIN Ver. 5.0; method by refs 48, 49. The settings on record: both partners purified. A general note: In ITC the heat of successive injections is recorded.
For assay [3], the target named is T1, Human serum albumin. The description is as above. Conditions: both partners purified.
The target of assay [4] is T3, Mouse serum albumin (mouse, UniProt P07724 25-608).
T3 construct: serum albumin, mouse; also called MSA; source: bought: Sigma
The assay is described as above. Conditions: both partners purified.

Assay [5] addresses T2, Recombinant human TNFRI, …. In words: SPR; BIAcore 3000; peptide serially diluted and injected; KD by BIAcore kinetic evaluation Ver. 4.1; method by refs 48, 49. Conditions: both partners purified. Background: In SPR one partner is held on a chip, and binding of the other changes the refractive index at the surface.
Assay [6] concerns the target T1, Human serum albumin. Described as above. Conditions: both partners purified.
Assay [7] has as its target T3, Mouse serum albumin. Described as above. The settings on record: both partners purified.
In assay [8] the target is T4, Human TNFRI of ML-la cells (human, UniProt P19438 30-455).
T4 construct: also called p60; source: endogenous, on ML-la cells (human myelomonoblastic leukemia cell line)
T4 sequence (looked up): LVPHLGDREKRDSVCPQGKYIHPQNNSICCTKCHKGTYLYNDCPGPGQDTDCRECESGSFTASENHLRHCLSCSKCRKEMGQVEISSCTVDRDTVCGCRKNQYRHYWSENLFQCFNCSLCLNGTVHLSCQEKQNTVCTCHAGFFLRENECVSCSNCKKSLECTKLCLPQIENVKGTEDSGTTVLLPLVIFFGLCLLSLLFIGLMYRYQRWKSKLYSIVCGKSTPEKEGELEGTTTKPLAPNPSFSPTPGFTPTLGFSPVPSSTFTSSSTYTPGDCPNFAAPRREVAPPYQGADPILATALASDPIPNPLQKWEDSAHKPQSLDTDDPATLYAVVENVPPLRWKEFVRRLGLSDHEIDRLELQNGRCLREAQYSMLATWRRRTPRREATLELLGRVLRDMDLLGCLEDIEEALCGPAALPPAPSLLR
The experiment in a line: radioligand binding; competition: ML-la cells (1 × 10^6 cells/well) preincubated with anti-p60 or anti-p80 antibody (25 °C, 30 min) to block TNFRI or TNFRII, then 125I-labeled TNF α with unlabeled TNF α or RMP16 (10^-11 to 10^-5 M) in RPMI 1640 with 10% fetal calf serum, 25 °C, 1 h; cell-bound radioactivity counted. Conditions: one partner purified.

By Kd is commonly meant the free concentration of one partner at which half of the binding sites on the other are occupied at equilibrium, for simple one-to-one binding. For orientation: IC50 means the concentration that inhibits the measured activity by half.

T3 sequence (P07724 25-608): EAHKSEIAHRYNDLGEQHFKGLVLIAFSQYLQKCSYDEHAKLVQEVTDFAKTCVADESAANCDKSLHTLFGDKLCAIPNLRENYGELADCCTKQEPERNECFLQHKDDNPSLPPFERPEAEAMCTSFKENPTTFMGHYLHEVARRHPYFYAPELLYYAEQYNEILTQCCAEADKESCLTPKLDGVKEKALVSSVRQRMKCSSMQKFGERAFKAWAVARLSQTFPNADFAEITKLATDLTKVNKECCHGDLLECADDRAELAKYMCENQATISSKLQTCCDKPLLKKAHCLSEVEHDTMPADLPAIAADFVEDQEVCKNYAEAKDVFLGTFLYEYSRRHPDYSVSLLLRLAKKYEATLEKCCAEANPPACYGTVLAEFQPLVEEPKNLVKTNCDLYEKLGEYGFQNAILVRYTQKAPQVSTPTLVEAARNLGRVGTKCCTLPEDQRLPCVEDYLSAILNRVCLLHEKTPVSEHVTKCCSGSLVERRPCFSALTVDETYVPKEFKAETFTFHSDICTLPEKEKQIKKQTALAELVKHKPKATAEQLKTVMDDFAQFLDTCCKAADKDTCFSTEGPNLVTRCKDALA

B1: RMP16, recombinant TNF α-derived polypeptide (peptide)
chain: MWQRPSSWIEGRLLTHTISRIAVSYQTKVNLL
notes: P16, TNF α segment of amino acid residues 75-94, human; also called recombinant peptide RMP16
Turning to B1, the “in vitro Factor Xa enzyme digestion half-life of RMP16 (10 μM) in the presence of HSA (2 μM), against 9.72 h without HSA” value with Human serum albumin [1] turned out to be 15.8 h. For the same molecule, the Kd is 20.4 nM in assay [2]; 822 nM with Human serum albumin [3]; 894 nM with Mouse serum albumin [4]; 21.3 nM in assay [5]; 875 nM with Human serum albumin [6]; 925 nM in the assay with Mouse serum albumin [7]. The IC50 in assay [8] was 15.1 nM.
